Source: patent publication US20230382991A1
Values joined by “and” are separate entries in the source; they are usually repeats but may differ in a detail not shown here. Equal values may be shown once.

Key:
[1] = molecular target: cynomolgus macaque LILRB4 expressed on stably transduced HEK293T cells (cynomolgus macaque)
[2] = molecular target: cynomolgus macaque LILRB1.2 expressed on stably transduced HEK293T cells (cynomolgus macaque)
[3] = molecular target: cynomolgus macaque LILRB2.1 expressed on stably transduced HEK293T cells (cynomolgus macaque)

For “cynomolgus macaque Mafa-A1*063 SIV gag GW9 (…)-APC tetramer (peptide-MHC)”, the % cells in the tetramer+ gate [1] was 0.13%, the % cells in the tetramer+ gate [2] was 51.7% and 53% and the % cells in the tetramer+ gate [3] was 73.5% and 71%.
